Target: BswR (Bacterial SWarming Regulator), PA2780 (Pseudomonas aeruginosa)
Assay: SEC; gel filtration profile during protein purification; HiLoad Superdex 75 26/60; 20 mM Tris pH 7.5, 200 mM NaCl, 5 mM beta-ME

Substance: BswR (Bacterial SWarming Regulator), PA2780 (natural protein)
- stoichiometry N: 2

From PMC3985676
